The text below walks through data of IntAct's records for PubMed 14660673.

B1: F-box protein MET30 (Saccharomyces cerevisiae), P39014 (parent)
chain: MRRERQRMMSFEDKDKDDLDNSNSNNSSEMTDTAMMPPLKRLLITGSSDDLAQGSSGKKKMTMATRSPSSSPDLATNDSGTRVQPLPEYNFTKFCYRHNPDIQFSPTHTACYKQDLKRTQEINANIAKLPLQEQSDIHHIISKYSNSNDKIRKLILDGILSTSCFPQLSYISSLVTHMIKIDFISILPQELSLKILSYLDCQSLCNATRVCRKWQKLADDDRVWYHMCEQHIDRKCPNCGWGLPLLHMKRARIQQNSTGSSSNADIQTQTTRPWKVIYRERFKVESNWRKGHCRIQEFKGHMDGVLTLQFNYRLLFTGSYDSTIGIWDLFTGKLIRRLSGHSDGVKTLYFDDRKLITGSLDKTIRVWNYITGECISTYRGHSDSVLSVDSYQKVIVSGSADKTVKVWHVESRTCYTLRGHTEWVNCVKLHPKSFSCFSCSDDTTIRMWDIRTNSCLKVFRGHVGQVQKIIPLTIKDVENLATDNTSDGSSPQDDPTMTDGADESDTPSNEQETVLDENIPYPTHLLSCGLDNTIKLWDVKTGKCIRTQFGHVEGVWDIAADNFRIISGSHDGSIKVWDLQSGKCMHTFNGRRLQRETQHTQTQSLGDKVAPIACVCIGDSECFSGDEFGCVKMYKFDLND

The variants in the first assay derive from B1. The following applies: with skp1_yeast SKP1, P52286.
skp1_yeast SKP1, P52286, sequence (P52286 whole entry): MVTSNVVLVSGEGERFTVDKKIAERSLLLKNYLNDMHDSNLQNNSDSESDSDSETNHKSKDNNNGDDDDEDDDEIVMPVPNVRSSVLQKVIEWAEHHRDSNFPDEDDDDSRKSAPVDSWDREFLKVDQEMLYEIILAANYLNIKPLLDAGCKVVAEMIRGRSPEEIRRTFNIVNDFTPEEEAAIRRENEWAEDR
For the variant S169P, the “effect of a mutation on the interaction” value is recorded as “disrupting interaction strength”. Still for that read-out and setting: in the case of C211Y it was “disrupting interaction strength”; in that of Q167R, “disrupting interaction strength”. In the case of P188S, the “effect of a mutation on the interaction” value was “disrupting interaction strength”. For the variant P188L, the “effect of a mutation on the interaction” value was “disrupting interaction strength”.

With S163N, the “effect of a mutation on the interaction” value is recorded as “disrupting interaction strength”.

The next assay covers variants of B1. The following applies: with skp1_yeast SKP1, P52286. The source holds these as a separate data set.
For L187D;E190A, the “effect of a mutation on the interaction” value is reported as “decreasing interaction”.
